Tests used:
[1] = molecular target: mouse METAP1(1-59) (mouse) (UniProt Q8BP48); test: other fluorescence titration
[2] = molecular target: mouse METAP1(1-79) (mouse) (UniProt Q8BP48); test: other fluorescence titration

Kd [1]: 100 nM
stoichiometry N [1]: 1
Kd [2]: 100 nM
stoichiometry N [2]: 1
Substance: mouse ZNG1 N-terminal peptide, synthetic

Reference: paper PMC9189065
